From the supplement of paper PMC10065799, “High-throughput profiling of sequence recognition by tyrosine kinases and SH2 domains using bacterial peptide display” (eLife, 2023)

Assays:
Hck = Hck (UniProt P08631); test: phosphorylation enrichment, bacterial display (enrichment ratio); higher = better substrate or ligand; peptides without Tyr show the background
Jak2 = Jak2 (UniProt O60674); test: as above
Fes = Fes (UniProt P07332); test: as above
FGFR1 = FGFR1 (UniProt P11362); test: as above
Fer (mouse) = test: as above
EPHB2 = EPHB2 (UniProt P29323); test: as above
EPHB1 = EPHB1 (UniProt P54762); test: as above
EPHB1, sequence (P54762 whole entry, looked up): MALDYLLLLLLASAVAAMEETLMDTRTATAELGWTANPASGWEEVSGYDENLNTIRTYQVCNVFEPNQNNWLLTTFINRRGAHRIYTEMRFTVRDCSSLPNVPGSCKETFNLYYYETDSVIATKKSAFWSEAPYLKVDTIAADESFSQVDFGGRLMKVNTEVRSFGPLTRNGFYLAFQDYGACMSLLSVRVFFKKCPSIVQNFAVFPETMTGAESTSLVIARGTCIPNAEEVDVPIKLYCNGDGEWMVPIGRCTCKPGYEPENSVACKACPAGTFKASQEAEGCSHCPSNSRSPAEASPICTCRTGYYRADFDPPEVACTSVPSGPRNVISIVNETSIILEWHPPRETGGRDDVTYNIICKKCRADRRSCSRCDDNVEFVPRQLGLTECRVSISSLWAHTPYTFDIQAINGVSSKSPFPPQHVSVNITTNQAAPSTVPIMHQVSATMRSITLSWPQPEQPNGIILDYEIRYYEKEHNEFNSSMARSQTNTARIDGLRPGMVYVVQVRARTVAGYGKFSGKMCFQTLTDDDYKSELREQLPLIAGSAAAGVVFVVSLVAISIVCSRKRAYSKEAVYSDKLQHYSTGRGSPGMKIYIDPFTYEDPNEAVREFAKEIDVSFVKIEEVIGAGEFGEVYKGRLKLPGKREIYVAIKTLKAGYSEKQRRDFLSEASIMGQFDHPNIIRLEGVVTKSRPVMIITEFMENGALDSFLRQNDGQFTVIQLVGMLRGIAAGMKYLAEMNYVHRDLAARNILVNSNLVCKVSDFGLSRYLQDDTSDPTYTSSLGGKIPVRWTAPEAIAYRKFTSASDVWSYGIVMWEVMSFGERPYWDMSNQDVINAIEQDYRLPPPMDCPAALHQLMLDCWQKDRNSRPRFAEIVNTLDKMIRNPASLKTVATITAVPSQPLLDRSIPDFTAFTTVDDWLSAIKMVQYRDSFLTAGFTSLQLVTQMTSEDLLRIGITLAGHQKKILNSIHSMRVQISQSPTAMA

MERTK = MERTK (UniProt Q12866); test: as above
MERTK, sequence (Q12866 whole entry, looked up): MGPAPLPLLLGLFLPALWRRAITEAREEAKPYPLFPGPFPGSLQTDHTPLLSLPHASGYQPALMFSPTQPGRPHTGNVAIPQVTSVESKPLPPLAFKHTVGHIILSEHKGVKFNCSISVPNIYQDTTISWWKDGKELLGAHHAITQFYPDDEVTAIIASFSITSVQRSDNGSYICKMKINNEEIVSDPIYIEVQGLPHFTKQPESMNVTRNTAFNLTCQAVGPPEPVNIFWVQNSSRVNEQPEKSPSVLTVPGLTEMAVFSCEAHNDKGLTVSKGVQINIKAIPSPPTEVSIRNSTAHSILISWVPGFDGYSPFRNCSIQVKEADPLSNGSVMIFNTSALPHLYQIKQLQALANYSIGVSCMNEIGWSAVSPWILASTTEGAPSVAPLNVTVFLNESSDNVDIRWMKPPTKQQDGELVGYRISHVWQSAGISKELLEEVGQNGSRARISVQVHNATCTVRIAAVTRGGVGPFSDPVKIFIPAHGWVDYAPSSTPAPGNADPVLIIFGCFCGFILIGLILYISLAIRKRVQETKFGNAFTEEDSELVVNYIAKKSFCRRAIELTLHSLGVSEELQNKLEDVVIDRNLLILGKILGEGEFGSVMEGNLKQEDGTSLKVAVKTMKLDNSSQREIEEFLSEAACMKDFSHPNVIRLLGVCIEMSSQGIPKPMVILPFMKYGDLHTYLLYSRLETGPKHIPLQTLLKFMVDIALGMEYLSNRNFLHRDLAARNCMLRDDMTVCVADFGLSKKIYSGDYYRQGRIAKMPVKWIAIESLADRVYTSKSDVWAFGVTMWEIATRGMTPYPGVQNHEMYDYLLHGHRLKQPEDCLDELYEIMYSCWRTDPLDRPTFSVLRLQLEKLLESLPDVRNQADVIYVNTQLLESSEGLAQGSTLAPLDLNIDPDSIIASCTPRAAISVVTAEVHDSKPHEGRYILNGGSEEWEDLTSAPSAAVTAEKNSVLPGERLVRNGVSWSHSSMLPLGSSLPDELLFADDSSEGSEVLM

AncSZ = test: as above
FGFR3 = FGFR3 (UniProt P22607); test: as above
FGFR3, sequence (P22607 whole entry, looked up): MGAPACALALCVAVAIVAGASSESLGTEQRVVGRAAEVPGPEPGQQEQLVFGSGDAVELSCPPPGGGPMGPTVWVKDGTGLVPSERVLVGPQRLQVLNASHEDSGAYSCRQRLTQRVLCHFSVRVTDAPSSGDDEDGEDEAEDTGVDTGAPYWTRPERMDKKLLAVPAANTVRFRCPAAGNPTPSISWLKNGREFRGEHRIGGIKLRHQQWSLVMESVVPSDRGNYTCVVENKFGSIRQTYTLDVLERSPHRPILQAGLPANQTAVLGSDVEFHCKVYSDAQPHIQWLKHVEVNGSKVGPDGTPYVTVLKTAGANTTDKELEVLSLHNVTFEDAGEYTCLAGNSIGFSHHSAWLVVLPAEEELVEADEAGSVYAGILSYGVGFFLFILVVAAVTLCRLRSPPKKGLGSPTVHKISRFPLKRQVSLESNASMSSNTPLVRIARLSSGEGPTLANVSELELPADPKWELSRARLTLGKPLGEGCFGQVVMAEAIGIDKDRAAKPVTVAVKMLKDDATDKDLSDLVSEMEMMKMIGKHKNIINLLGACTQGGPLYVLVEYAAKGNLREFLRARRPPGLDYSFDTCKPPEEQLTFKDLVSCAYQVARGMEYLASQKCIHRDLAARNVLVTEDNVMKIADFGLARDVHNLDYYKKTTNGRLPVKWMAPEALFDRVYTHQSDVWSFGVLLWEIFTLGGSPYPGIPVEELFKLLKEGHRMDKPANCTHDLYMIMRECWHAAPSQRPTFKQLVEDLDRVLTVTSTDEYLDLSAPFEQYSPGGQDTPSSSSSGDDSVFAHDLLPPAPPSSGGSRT

c-Src = test: as above
c-Abl (mouse) = test: as above
Fyn = Fyn (UniProt P06241); test: as above
Fyn, sequence (P06241 whole entry, looked up): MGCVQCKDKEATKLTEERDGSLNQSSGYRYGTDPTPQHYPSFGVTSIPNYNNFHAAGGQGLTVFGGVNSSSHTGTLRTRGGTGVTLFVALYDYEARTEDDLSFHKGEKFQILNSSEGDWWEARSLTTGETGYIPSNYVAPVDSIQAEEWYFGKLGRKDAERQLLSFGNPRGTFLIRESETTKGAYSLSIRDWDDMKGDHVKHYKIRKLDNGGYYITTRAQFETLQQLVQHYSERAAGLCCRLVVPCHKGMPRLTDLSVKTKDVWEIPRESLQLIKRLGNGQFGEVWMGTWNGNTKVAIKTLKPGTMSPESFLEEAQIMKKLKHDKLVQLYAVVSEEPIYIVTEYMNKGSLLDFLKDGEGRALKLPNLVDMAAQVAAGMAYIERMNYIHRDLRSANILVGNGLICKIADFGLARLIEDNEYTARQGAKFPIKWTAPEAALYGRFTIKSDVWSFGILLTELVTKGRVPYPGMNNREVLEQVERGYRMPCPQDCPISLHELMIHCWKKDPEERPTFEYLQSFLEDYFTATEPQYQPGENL

c-Src SH2 = test: SH2 binding enrichment of the phosphorylated peptide, bacterial display (enrichment ratio); higher = better substrate or ligand; peptides without Tyr show the background
SHP2-C SH2 = test: as above
Grb2 SH2 = Grb2 SH2 (UniProt P62993); test: as above
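For SH2 binding enrichment of the phosphorylated peptide, bacterial display in this document: peptide library displayed on the E. coli surface as eCPX fusions, selected cells deep-sequenced, score is each peptide's frequency after selection divided by its frequency in the input.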
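For phosphorylation enrichment, bacterial display in this document: 11-residue human phosphosite peptides and single-mutation variants displayed on the E. coli surface, counted by deep sequencing, each peptide's frequency after selection divided by its frequency in the unselected input library; frequency after pTyr selection over input frequency; kinase dosed for 20-30% of maximal phosphorylation in three min.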

Fes, sequence (P07332 whole entry, looked up): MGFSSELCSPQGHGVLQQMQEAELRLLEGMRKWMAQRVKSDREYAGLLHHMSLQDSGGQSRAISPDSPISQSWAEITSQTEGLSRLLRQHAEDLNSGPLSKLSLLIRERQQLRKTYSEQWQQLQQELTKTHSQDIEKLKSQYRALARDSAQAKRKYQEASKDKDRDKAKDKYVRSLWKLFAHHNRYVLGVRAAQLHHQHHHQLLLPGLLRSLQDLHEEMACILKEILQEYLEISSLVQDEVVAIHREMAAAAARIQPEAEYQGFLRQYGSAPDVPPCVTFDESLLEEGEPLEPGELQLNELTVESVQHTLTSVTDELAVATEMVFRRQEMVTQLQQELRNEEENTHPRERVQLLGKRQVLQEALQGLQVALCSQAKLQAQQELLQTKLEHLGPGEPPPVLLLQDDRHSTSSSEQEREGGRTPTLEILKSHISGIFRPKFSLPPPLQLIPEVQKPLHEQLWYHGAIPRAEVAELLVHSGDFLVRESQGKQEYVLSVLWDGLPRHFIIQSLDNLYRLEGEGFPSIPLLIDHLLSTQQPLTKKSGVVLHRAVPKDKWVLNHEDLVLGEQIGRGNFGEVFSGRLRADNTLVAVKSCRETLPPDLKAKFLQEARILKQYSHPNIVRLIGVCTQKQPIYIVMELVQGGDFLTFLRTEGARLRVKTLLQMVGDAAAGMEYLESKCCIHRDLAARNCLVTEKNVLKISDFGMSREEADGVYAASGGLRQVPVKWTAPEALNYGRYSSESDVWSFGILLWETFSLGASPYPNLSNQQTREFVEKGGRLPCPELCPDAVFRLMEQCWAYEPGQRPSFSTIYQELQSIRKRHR
FGFR1, sequence (P11362 whole entry, looked up): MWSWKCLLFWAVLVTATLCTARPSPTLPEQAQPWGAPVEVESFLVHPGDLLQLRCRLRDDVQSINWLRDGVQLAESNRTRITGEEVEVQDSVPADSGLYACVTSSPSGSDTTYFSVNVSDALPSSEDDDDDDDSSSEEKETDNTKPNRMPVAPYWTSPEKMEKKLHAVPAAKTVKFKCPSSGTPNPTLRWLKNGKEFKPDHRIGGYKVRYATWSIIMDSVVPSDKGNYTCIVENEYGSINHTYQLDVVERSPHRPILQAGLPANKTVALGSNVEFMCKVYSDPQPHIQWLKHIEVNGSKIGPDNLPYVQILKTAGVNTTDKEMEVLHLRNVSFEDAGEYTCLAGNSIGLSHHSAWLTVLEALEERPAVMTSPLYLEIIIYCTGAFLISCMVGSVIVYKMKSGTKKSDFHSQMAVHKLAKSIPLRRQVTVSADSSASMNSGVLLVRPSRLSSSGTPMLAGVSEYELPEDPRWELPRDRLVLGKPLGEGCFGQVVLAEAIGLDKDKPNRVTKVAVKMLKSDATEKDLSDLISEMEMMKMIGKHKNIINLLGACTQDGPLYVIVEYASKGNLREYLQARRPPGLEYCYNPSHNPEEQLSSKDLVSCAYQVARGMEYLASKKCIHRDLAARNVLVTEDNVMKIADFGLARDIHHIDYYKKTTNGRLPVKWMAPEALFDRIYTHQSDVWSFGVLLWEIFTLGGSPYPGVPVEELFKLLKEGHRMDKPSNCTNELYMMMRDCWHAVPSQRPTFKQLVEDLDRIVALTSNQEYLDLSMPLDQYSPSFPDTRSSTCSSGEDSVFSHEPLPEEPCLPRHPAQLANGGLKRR

Row | Sequence | phosphorylation enrichment (Hck) | phosphorylation enrichment (Jak2) | phosphorylation enrichment (Fes) | phosphorylation enrichment (FGFR1) | phosphorylation enrichment (Fer (mouse)) | phosphorylation enrichment (EPHB2) | phosphorylation enrichment (EPHB1) | phosphorylation enrichment (MERTK) | phosphorylation enrichment (AncSZ) | phosphorylation enrichment (FGFR3) | phosphorylation enrichment (c-Src) | phosphorylation enrichment (c-Abl (mouse)) | phosphorylation enrichment (Fyn) | SH2 binding enrichment (c-Src SH2) | SH2 binding enrichment (SHP2-C SH2) | SH2 binding enrichment (Grb2 SH2)
1 | AACQHYGVRTC [NR4A2_Y275] | 0.421 | 0.513 | 0.581 | 0.472 | 0.379 | 0.412 | 0.381 | 0.406 | 0.592 | 0.405 | 0.408 | 0.424 | 0.452 | 0.721 | 0.896 | 1
2 | AAILGYCRGEA [XPC_Y669] | 0.467 | 0.786 | 1.02 | 0.541 | 0.419 | 0.45 | 0.567 | 0.413 | 0.789 | 0.556 | 0.372 | 0.718 | 0.438 | 0.57 | 0.683 | 0.821
3 | AALRLYHVSDS [VIL1_Y256_K254R] | 0.485 | 0.734 | 0.959 | 0.641 | 0.531 | 0.508 | 0.617 | 0.478 | 0.738 | 0.763 | 0.451 | 0.798 | 0.579 | 0.593 | 0.526 | 0.757
4 | AALVQYYMEHH [PTPN11_Y80_E76A] | 0.813 | 0.745 | 0.912 | 0.722 | 0.415 | 1.17 | 1.9 | 0.68 | 0.937 | 0.767 | 0.541 | 0.49 | 0.529 | 0.742 | 1.16 | 0.991
5 | AAQNCYKVTNG [TPI1_Y105] | 0.408 | 0.665 | 0.905 | 0.523 | 0.391 | 0.421 | 0.37 | 0.411 | 0.725 | 0.536 | 0.356 | 0.738 | 0.411 | 0.594 | 0.543 | 0.852
6 | ADDSYYTVRSA [ZAP70_Y493_A495V] | 2.89 | 1.47 | 0.941 | 7.54 | 0.425 | 0.637 | 0.709 | 0.784 | 1.56 | 5.2 | 2.45 | 0.611 | 2.01 | 0.874 | 0.753 | 0.733
7 | ADELEYSRTGL [MMUT_Y287_G284E] | 0.517 | 0.741 | 0.972 | 0.402 | 0.437 | 0.568 | 0.596 | 0.407 | 1.11 | 0.645 | 0.464 | 0.644 | 0.482 | 0.457 | 0.623 | 0.747
8 | ADLLDYIKALN [HPRT1_Y81] | 0.52 | 0.928 | 1.2 | 0.434 | 0.531 | 0.558 | 0.625 | 0.48 | 1.07 | 0.695 | 0.484 | 0.754 | 0.445 | 0.468 | 0.607 | 0.786
9 | ADQLDYIKALN [HPRT1_Y81_L78Q] | 0.526 | 0.861 | 1.22 | 0.458 | 0.451 | 0.474 | 0.784 | 0.441 | 1.06 | 0.608 | 0.408 | 0.708 | 0.492 | 0.491 | 0.559 | 0.914
10 | ADRSCYDLSCH [GARS1_Y467] | 0.561 | 0.798 | 0.91 | 0.433 | 0.431 | 0.528 | 0.486 | 0.457 | 0.92 | 0.586 | 0.472 | 0.631 | 0.604 | 0.985 | 0.968 | 0.79
11 | ADYPDYKYRPR [SOX11_Y116] | 0.505 | 0.601 | 0.718 | 0.594 | 0.342 | 0.489 | 0.48 | 0.378 | 0.673 | 0.613 | 0.409 | 0.461 | 0.389 | 0.587 | 1.18 | 0.973
12 | AEFGLYGAMVR [VSX2_Y222_YF] | 6.05 | 0.868 | 1.21 | 0.538 | 0.828 | 0.719 | 0.741 | 0.674 | 1.07 | 0.715 | 3.61 | 0.678 | 5.3 | 0.42 | 0.816 | 0.783
13 | AEFGLYRAMVR [VSX2_Y222_G223R_YF] | 4.12 | 0.726 | 0.779 | 0.484 | 0.431 | 0.595 | 0.731 | 0.843 | 0.753 | 0.673 | 0.855 | 1.48 | 0.821 | 0.633 | 0.789 | 0.89
14 | AEQDWYHGAIP [FER_Y461] | 1.22 | 0.802 | 0.921 | 1.72 | 0.559 | 0.546 | 0.481 | 0.443 | 1.06 | 1.54 | 1.19 | 0.646 | 0.846 | 0.634 | 0.478 | 0.725
15 | AEVIWYKGDEV | 0.602 | 1.42 | 1.41 | 0.433 | 0.491 | 0.572 | 0.707 | 0.399 | 1.13 | 0.784 | 0.474 | 1.15 | 0.394 | 0.475 | 0.684 | 0.822
16 | AFHGEYIPTVF [RAC2_Y32_P29H] | 0.412 | 0.571 | 0.809 | 0.602 | 0.391 | 0.447 | 0.554 | 0.432 | 0.859 | 0.635 | 0.419 | 0.575 | 0.445 | 0.682 | 0.59 | 0.91
17 | AFQGKYTPSGQ [ALDOA_Y343_C339Y_YF] | 0.266 | 0.547 | 0.446 | 0.309 | 0.253 | 0.276 | 0.376 | 0.346 | 0.388 | 0.328 | 0.298 | 0.432 | 0.273 | 0.592 | 0.803 | 0.759

Row | Sequence | phosphorylation enrichment (Hck) | phosphorylation enrichment (Jak2) | phosphorylation enrichment (Fes) | phosphorylation enrichment (FGFR1) | phosphorylation enrichment (Fer (mouse)) | phosphorylation enrichment (EPHB2) | phosphorylation enrichment (EPHB1) | phosphorylation enrichment (MERTK) | phosphorylation enrichment (AncSZ) | phosphorylation enrichment (FGFR3) | phosphorylation enrichment (c-Src) | phosphorylation enrichment (c-Abl (mouse)) | phosphorylation enrichment (Fyn) | SH2 binding enrichment (c-Src SH2) | SH2 binding enrichment (SHP2-C SH2) | SH2 binding enrichment (Grb2 SH2)
18 | AFSTVYKGLWI [EGFR_Y727_G724S] | 0.445 | 1.1 | 1.1 | 0.504 | 0.677 | 0.498 | 0.578 | 0.395 | 1.01 | 0.67 | 0.455 | 0.814 | 0.433 | 0.653 | 1.5 | 0.949
19 | AGADGYGYLAP [FOXL2_Y186] | 0.468 | 0.538 | 0.622 | 0.37 | 0.26 | 0.464 | 0.387 | 0.364 | 0.576 | 0.457 | 0.372 | 0.443 | 0.361 | 1.09 | 0.339 | 0.759
20 | AGIVDYNIIGW [MYH7_Y588] | 0.497 | 0.877 | 1.18 | 0.873 | 0.439 | 0.431 | 0.636 | 0.349 | 1.07 | 0.909 | 0.454 | 0.619 | 0.497 | 0.566 | 0.589 | 0.562
21 | AGKEEYSAMRD [HRAS_Y64_Q61K] | 0.49 | 0.644 | 0.871 | 0.529 | 0.481 | 0.505 | 0.467 | 0.44 | 0.799 | 0.582 | 0.436 | 0.629 | 0.432 | 0.761 | 0.559 | 0.867
22 | AHLTEYLSTHF [UQCRC1_Y219_D215H_YF] | 0.526 | 0.837 | 0.915 | 0.529 | 0.44 | 0.499 | 0.471 | 0.408 | 0.902 | 0.577 | 0.525 | 0.676 | 0.471 | 0.412 | 0.809 | 0.811
23 | AIIGIYILRDD [CDH23_Y2949] | 0.951 | 1.35 | 1.5 | 0.484 | 0.676 | 0.788 | 0.831 | 0.546 | 1.24 | 0.753 | 2.76 | 0.965 | 1.18 | 1.04 | 1.11 | 1.47
24 | AIMSFYATLID [RYR1_Y2426_A2428T] | 0.585 | 1.83 | 1.51 | 0.601 | 0.791 | 0.836 | 1.05 | 0.59 | 1.31 | 1.09 | 0.486 | 1.07 | 0.508 | 0.541 | 0.673 | 0.869
25 | AIYRRYSKFFD [SH3PXD2B_Y45] | 0.594 | 0.83 | 1.03 | 0.509 | 0.383 | 0.568 | 0.603 | 0.596 | 0.989 | 0.555 | 0.636 | 0.783 | 0.485 | 0.511 | 0.495 | 0.674
26 | AKKVFYVNETR [SHH_Y253_I255N] | 0.338 | 0.526 | 0.737 | 0.42 | 0.338 | 0.448 | 0.594 | 0.363 | 0.576 | 0.494 | 0.319 | 0.459 | 0.307 | 0.743 | 0.814 | 4.17
27 | AKNKDYMSFIR [GNE_Y197_I200F] | 0.946 | 0.647 | 0.646 | 0.478 | 0.34 | 0.648 | 0.812 | 0.465 | 0.606 | 0.478 | 0.972 | 0.661 | 0.61 | 0.754 | 1.23 | 1.09
28 | ALAAPYVLFPS [CEFIP_Y1332_G1337S_YF] | 0.647 | 1.63 | 0.822 | 2.56 | 0.504 | 0.502 | 0.76 | 2.01 | 0.675 | 1.83 | 5 | 0.682 | 0.578 | 4.34 | 0.816 | 0.968
29 | ALAAPYVLYPG [CEFIP_Y1332] | 0.794 | 0.845 | 0.799 | 3.98 | 0.54 | 0.488 | 0.565 | 0.597 | 0.769 | 2.55 | 4.26 | 0.569 | 0.694 | 0.7 | 0.602 | 0.747
30 | ALAHKYPGGGG [HBB_Y146_H147P] | 0.273 | 0.262 | 0.632 | 0.853 | 0.432 | 0.84 | 0.894 | 0.334 | 0.214 | 0.662 | 0.281 | 0.436 | 0.559 | 0.384 | 0.581 | 0.516
31 | ALERPYTSKHS [NANS_Y71] | 0.463 | 0.564 | 0.535 | 0.381 | 0.353 | 0.459 | 0.372 | 0.442 | 0.531 | 0.398 | 0.461 | 0.615 | 0.406 | 0.6 | 0.529 | 0.866
32 | ALKKPYSVLFK [RPF2_Y59_G60S_YF] | 0.435 | 0.729 | 0.968 | 0.556 | 0.502 | 0.43 | 0.411 | 0.448 | 0.815 | 0.617 | 0.526 | 0.581 | 0.419 | 1.58 | 1.65 | 1.6
33 | ALWFIYSHTRS [ENG_Y614_YF] | 0.448 | 0.956 | 1.5 | 0.44 | 0.45 | 0.445 | 0.597 | 0.34 | 1.01 | 0.676 | 0.379 | 0.697 | 0.423 | 0.552 | 0.81 | 1.13
